Measurements from publication PMC10349104, “Engineering broad-spectrum inhibitors of inflammatory chemokines from subclass A3 tick evasins” (Nature Communications, 2023).
Values joined by “and” are separate entries in the source; they are usually repeats but may differ in a detail not shown here. Equal values may be shown once.

B1: CCL7(Y13A) (ligand)
chain: not shown
notes: source: E. coli Rosetta-gami 2 (DE3), purified (His-Trap, SEC, RP-HPLC)
B2: CCL11(F11A) (ligand)
chain: not shown
notes: also called CC + 1 residue-mutated CCL11; source: E. coli Rosetta-gami 2 (DE3), purified (His-Trap, SEC, RP-HPLC)
B3: CCL1 (ligand, human, UniProt P22362 24-96, looked up)
chain: KSMQVPFSRCCFSFAEQEIPLRAILCYRNTSSICSNEGLIFKLKRGKEACALDTVGWVQRHRKMLRHCPSKRK
B4: CCL3 (ligand, human, UniProt P10147 24-92, looked up)
chain: SLAADTPTACCFSYTSRQIPQNFIADYFETSSQCSKPGVIFLTKRSRQVCADPSEEWVQKYVSDLELSA
B5: CCL5 (ligand, human, UniProt P13501 24-91, looked up)
chain: SPYSSDTTPCCFAYIARPLPRAHIKEYFYTSGKCSNPAVVFVTRKNRQVCANPEKKWVREYINSLEMS
B6: CCL7 (ligand)
chain: not shown
notes: as for B1
B7: CCL8 (ligand, human, UniProt P80075 24-99, looked up)
chain: QPDSVSIPITCCFNVINRKIPIQRLESYTRITNIQCPKEAVIFKTKRGKEVCADPKERWVRDSMKHLDQIFQNLKP
B8: CCL11 (ligand)
chain: not shown
notes: as for B1
B9: CCL17 (ligand, human, UniProt Q92583 24-94, looked up)
chain: ARGTNVGRECCLEYFKGAIPLRKLKTWYQTSEDCSRDAIVFVTVQGRAICSDPNNKRVKNAVKYLQSLERS
notes: as for B1
B10: CCL18 (ligand, human, UniProt P55774 21-89, looked up)
chain: AQVGTNKELCCLVYTSWQIPQKFIVDYSETSPQCPKPGVILLTKRGRQICADPNKKWVQKYISDLKLNA
B11: CCL22 (ligand, human, UniProt O00626 25-93, looked up)
chain: GPYGANMEDSVCCRDYVRYRLPLRVVKHFYWTSDSCPRPGVVLLTFRDKEICADPRVPWVKMILNKLSQ
B12: CCL24 (ligand, human, UniProt O00175 27-119, looked up)
chain: VVIPSPCCMFFVSKRIPENRVVSYQLSSRSTCLKAGVIFTTKKGQQFCGDPKQEWVQRYMKNLDAKQKKASPRARAVAVKGPVQRYPGNQTTC
B13: CCL26 (ligand, human, UniProt Q9Y258 24-94, looked up)
chain: TRGSDISKTCCFQYSHKPLPWTWVRSYEFTSNSCSQRAVIFTTKRGKKVCTHPRKKWVQKYISLLKTPKQL

Molecular target: T1, EVA-AAM1001, C-terminally Avi-tagged and biotinylated (A. americanum, biotin on the AVI tag)
T1 chain: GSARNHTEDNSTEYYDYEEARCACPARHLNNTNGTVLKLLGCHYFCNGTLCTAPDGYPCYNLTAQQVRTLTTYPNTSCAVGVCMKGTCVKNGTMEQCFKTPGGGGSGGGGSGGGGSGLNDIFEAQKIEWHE
Experiment: SPR
Conditions: both partners purified
With B1 the “fold increase in affinity over wild type CCL7” value was ~10000 fold.
B2 was tested, and the “fold increase in affinity over wild type CCL11” value was ~200 fold.

What follows are binders tested against T2, EVA-4 (UniProt P0C8E9 24-127) (assay: not stated; Kd of EVA-4 for human chemokines, three readings (source data of Supplementary Fig. 7); method and conditions not told for EVA-4). Conditions: not given.
T2 sequence (looked up): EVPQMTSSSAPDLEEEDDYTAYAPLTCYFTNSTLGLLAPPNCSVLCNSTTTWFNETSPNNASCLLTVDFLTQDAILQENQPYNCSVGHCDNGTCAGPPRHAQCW
In the case of B3, the Kd is reported as 449 nM and 342 nM and 338 nM.
In the case of B4, the Kd is reported as 0.175 nM and 0.285 nM and 0.27 nM.
In the case of B5, the Kd is reported as 6.07 nM and 5.93 nM and 6.16 nM.
For B6, the Kd was 0.651 nM and 0.847 nM and 0.833 nM.
B7 was tested, and the Kd was 0.259 nM and 0.49 nM and 0.489 nM.
In the case of B8, the Kd is reported as 14.1 nM and 23.5 nM and 22.7 nM.
B9 was tested, and the Kd was 282 nM and 283 nM and 285 nM.
With B10 the Kd was 0.346 nM and 0.451 nM and 0.45 nM.
B11 was tested, and the Kd was 8.49 nM and 8.53 nM and 8.35 nM.
With B12 the Kd was 53.8 nM and 54.2 nM and 56.7 nM.
B13 was tested, and the Kd was 56.5 nM and 69.6 nM and 86.6 nM.
